From paper PMC2913173 (Journal of molecular biology, 2009)
eCPX = enhanced circularly permuted OmpX display protein

B1: Bak(24–89): eCPX fusion protein comprising helices α1, α2, and α3 of Bak (protein)
chain: EEQVAQDTEEVFRSYVFYRHQQEQEAEGVAAPADPEMVTLPLQPSSTMGQVGRQLAIIGDDINRRY-eCPX
B2: Bak(24–117): construct containing amino acids 24–117 of Bak (helices α1 to α4), eCPX fusion (protein)
chain: EEQVAQDTEEVFRSYVFYRHQQEQEAEGVAAPADPEMVTLPLQPSSTMGQVGRQLAIIGDDINRRYDSEFQTMLQHLQPTAENAYEYFTKIATS
modifications: left off: eCPX (enhanced circularly permuted OmpX display protein), C-terminal, kept

Molecular target: Bcl-xL (Homo sapiens, UniProt Q07817, DEL46-85)
Test: Cell surface display equilibrium binding assay with flow cytometry
Conditions: cells displaying Bak–eCPX fusions, biotinylated Bcl-xL and SAPE

| Molecule | Binding to Bcl-xL in words (fluorescence of cell population) |
| --- | --- |
| B1 | fluorescence only slightly above background levels |
| B2 | essentially no binding to Bcl-xL |
